Assay results from US8003854B2, “GRG32: a novel EPSP synthase gene conferring herbicide resistance” (Athenix Corp., priority 2006, dated 2011).

System: E. coli cells
Experiment: Glyphosate screen: growth of pRSF1b clones on M63+ plates with glyphosate
Format: cell-based
Conditions: two days at 37° C.
Procedure: The pRSF1b clones were plated onto M63+ plates containing antibiotic and either 0 mM or 50 mM glyphosate. Growth was scored after two days growth at 37° C.

B1: GRG32: glyphosate-resistant EPSP synthase; predicted translation product of grg32 (SEQ ID NO:2), expressed from clone pAX1950 in pRSF1b (protein)
chain: MTASASWTARKGQPLQGSLTIPGDKSVSHRAVMFAALADGVSHIDGFLEGEDTRATAAIFSQMGVRIETPSPSQRIVHGVGVDGLQAPAGPLDCGNAGTGMRLLAGLLAAQPFDAVMVGDESLSRRPMRRVTGPLAQMGAKIDTEADGTPPLRVHGGQPLHGIDFASPVASAQVKSAVLLAGLYAQGETSVTEPHPTRDYSERMLRAFGVEIEFSPGKARLRGGQRLRATDIAVPADFSSAAFFLVAASIIPGSALTLRQVGLNPRRTGLLAALRLMGADIREENHAEQGGEAVADLVVRHAPLHGAEIPEALVPDMIDEFPALFVAAAAAQGNTIVRGAAELRVKESDRLAAMATGLRSLGVQVDETEDGATIHGGHELGSGTIESHGDHRIAMAFAIAGQLSSGEVRINDIANVATSFPNFDGIARTAGFNLG
modifications: Isolated from soil sample
resistance to 50 mM glyphosate in E. coli cells: confer resistance
